Measurements reported in US20230135471A1, “UBIQUITIN VARIANTS WITH IMPROVED AFFINITY FOR 53BP1” (Integrated DNA Technologies, Inc., priority 2021, published 2023).

Target: 53BP1 fragment (a.a. 1221-1718) fused to an adenylate cyclase fragment (two-hybrid) (UniProt Q12888)
Test: cell-based or functional assay

Row | Substance | Experiment 1 Average Enrichment | Experiment 1 Rep 1 Enrichment | Experiment 1 Rep 2 Enrichment | Experiment 2 Average Enrichment | Experiment 2 Rep 1 Enrichment | Experiment 2 Rep 2 Enrichment | Percent GFP Positive Rep 1 | Percent GFP Positive Rep 2 | Percent GFP Positive Rep 3
1 | i53 + T7I two-hybrid fusion (designed binder) | 1.66 log2 | 1.7 log2 | 1.63 log2 | 1.03 log2 | 1.04 log2 | 1.02 log2 |  |  | 
2 | i53 + R54Q two-hybrid fusion (designed binder) | 0.14 log2 | -0.05 log2 | 0.32 log2 | -0.02 log2 | -0.04 log2 | 0 log2 |  |  | 
3 | i53 + P38Y two-hybrid fusion (designed binder) | 0.74 log2 | 1.79 log2 | -0.3 log2 | 0.31 log2 | 0.66 log2 | -0.03 log2 |  |  | 
4 | i53 + E18R two-hybrid fusion (designed binder) | -0.75 log2 | -1.22 log2 | -0.28 log2 | 0.06 log2 | -0.24 log2 | 0.36 log2 |  |  | 
5 | i53 + K29Q two-hybrid fusion (designed binder) | 0.05 log2 | -0.21 log2 | 0.31 log2 | -0.04 log2 | -0.26 log2 | 0.17 log2 |  |  | 
6 | i53 + Q41V two-hybrid fusion (designed binder) | -0.14 log2 | -0.37 log2 | 0.1 log2 | 0.05 log2 | 0.13 log2 | -0.03 log2 |  |  | 
7 | i53 + S65K two-hybrid fusion (designed binder) | 1.65 log2 | 1.61 log2 | 1.69 log2 | 0.63 log2 | 0.74 log2 | 0.53 log2 |  |  | 
8 | i53 + S49M two-hybrid fusion (designed binder) | 0.84 log2 | 1 log2 | 0.69 log2 | 0.77 log2 | 0.57 log2 | 0.98 log2 |  |  | 
9 | i53 + P38I two-hybrid fusion (designed binder) | 0.66 log2 | 0.4 log2 | 0.92 log2 | 0.64 log2 | 1.62 log2 | -0.34 log2 |  |  | 
10 | i53 + R42N two-hybrid fusion (designed binder) | 1.12 log2 | 1.18 log2 | 1.05 log2 | 1.01 log2 | 1.34 log2 | 0.68 log2 |  |  | 
11 | i53 + H68Q two-hybrid fusion (designed binder) | 0.07 log2 | 0.44 log2 | -0.3 log2 | -0.5 log2 | -0.62 log2 | -0.38 log2 |  |  | 
12 | i53 + L67M two-hybrid fusion (designed binder) | 1.03 log2 | 0.98 log2 | 1.07 log2 | 0.77 log2 | 0.65 log2 | 0.88 log2 |  |  | 
13 | i53 + A28M two-hybrid fusion (designed binder) | 0.03 log2 | 0.49 log2 | -0.42 log2 | -0.19 log2 | -0.51 log2 | 0.12 log2 |  |  | 
14 | i53 + E18C two-hybrid fusion (designed binder) | 0.23 log2 | -0.06 log2 | 0.52 log2 | -0.34 log2 | -0.82 log2 | 0.14 log2 |  |  | 
15 | i53 + R54F two-hybrid fusion (designed binder) | 0.76 log2 | 1.01 log2 | 0.52 log2 | 0.55 log2 | 0.66 log2 | 0.43 log2 |  |  | 
16 | i53 + R74I two-hybrid fusion (designed binder) | 0.83 log2 | 0.84 log2 | 0.83 log2 | 0.61 log2 | 0.63 log2 | 0.58 log2 |  |  | 
17 | i53 + R74Q two-hybrid fusion (designed binder) | 2.29 log2 | 2.6 log2 | 1.98 log2 | 1.54 log2 | 1.56 log2 | 1.52 log2 |  |  | 
18 | i53 + K29H two-hybrid fusion (designed binder) | 0.17 log2 | 0.02 log2 | 0.32 log2 | -2.73 log2 | -3.26 log2 | -2.2 log2 |  |  | 
19 | i53 + R42H two-hybrid fusion (designed binder) | 2.04 log2 | 2.18 log2 | 1.89 log2 | 1.03 log2 | 0.89 log2 | 1.16 log2 |  |  | 
20 | i53 + D39E two-hybrid fusion (designed binder) | 0.36 log2 | 0.29 log2 | 0.44 log2 | -0.18 log2 | -0.14 log2 | -0.23 log2 |  |  | 
21 | i53 + L73M two-hybrid fusion (designed binder) | 2.61 log2 | 2.69 log2 | 2.52 log2 | 1.43 log2 | 1.58 log2 | 1.28 log2 | 36.2% | 29.2% | 39.5%
22 | i53 + S49D two-hybrid fusion (designed binder) | 0.41 log2 | 0.11 log2 | 0.71 log2 | 0.44 log2 | 0.39 log2 | 0.49 log2 |  |  | 
23 | i53 + M1W two-hybrid fusion (designed binder) | 1.83 log2 | 1.95 log2 | 1.71 log2 | 0.96 log2 | 0.99 log2 | 0.92 log2 |  |  | 
24 | i53 + N25A two-hybrid fusion (designed binder) | 0.3 log2 | 0.12 log2 | 0.49 log2 | 0.4 log2 | 0.39 log2 | 0.4 log2 |  |  | 
25 | i53 + M1N two-hybrid fusion (designed binder) | -0.25 log2 | -0.37 log2 | -0.13 log2 | 0.02 log2 | -0.04 log2 | 0.08 log2 |  |  | 
26 | i53 + I13H two-hybrid fusion (designed binder) | 0.5 log2 | -0.27 log2 | 1.28 log2 | -1.6 log2 | -2.48 log2 | -0.71 log2 |  |  | 
